According to patent publication US20240368267A1 (KODIAK SCIENCES, published 2024):
Numbering of substitutions follows the chain as printed. In names and notes the source's numbering stands. Each block holds one binder with its values, some of them ahead of it.

Target: T1, human IL-6 (human, UniProt P05231 30-212)
T1 construct: also called interleukin-6
Experiment: SPR (Biacore T200), antibody from cell supernatant captured on Protein A, IL-6 flowed over, 37 C
Description: Those four positions were selected based on their tolerance for mutations as observed in bacterial and mammalian screens. […] These cultures were centrifuged and supernatants containing secreted antibodies were harvested and diluted in HBS-EP+ running buffer (1:20 ratio).
Antibodies were captured on a Protein A chip (GE) by injecting 1:20 cell supernatant dilutions at 10 μL/min for 60 seconds. […] The sensor chip was regenerated by a 60 seconds injection of 10 mM Glycine pH 1.7 at the flow rate of […]. […] For this setup, 1 μg/mL of purified antibody was injected over a Protein A chip at 10 μL/min for 25 seconds. […] The sensor chip was regenerated by a 60 seconds injection of 10 mM Glycine pH 1.7 at flow rate of 50 μL/min. Data analysis for supernatant and purified samples were performed using BIAevaluation software (GE). All sensorgrams were double reference subtracted and fit using a 1:1 Langmuir binding model.

T1 sequence (P05231 30-212 limits assumed): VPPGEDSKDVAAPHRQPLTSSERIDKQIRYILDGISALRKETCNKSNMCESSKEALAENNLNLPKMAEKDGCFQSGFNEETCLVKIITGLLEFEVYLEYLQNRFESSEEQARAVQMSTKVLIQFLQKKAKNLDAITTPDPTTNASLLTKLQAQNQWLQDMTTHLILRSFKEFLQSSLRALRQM

B1: anti-IL-6 antibody, heavy chain S35F, G66D / light chain WT (antibody, human IgG1, V domains shown)
VH: EVQLVESGGGLVQPGGSLRLSCAASGFTFSPFAMFWVRQAPGKGLEWVAKISPGGSWTYYSDTVTDRFTFSLDTSKSTAYLQMNSLRAEDTAVYYCARQLWGYYALDIWGQGTLVTVSS
VL: DIQLTQSPSSLSASVGDRVTITCSASISVSYMYWYQQKPGKAPKLLIYDMSNLASGVPSRFSGSGSGTDFTLTISSLQPEDFATYYCMQWSGYPYTFGQGTKVEIK
notes: Derived as m2; Engineered human IgG1
- Kd: 749 pM
- koff: 0.00119 s⁻¹
- kon: 1.59e+06 M⁻¹ s⁻¹

B3: anti-IL-6 antibody, heavy chain T63F, G66D / light chain WT (antibody, human IgG1, V domains shown)
VH: B1 VH with F35S, T63F
VL: B1 VL
notes: as for B1
- Kd: 221 pM
- koff: 0.000401 s⁻¹
- kon: 1.81e+06 M⁻¹ s⁻¹

B7: anti-IL-6 antibody, heavy chain S35L, G66D / light chain WT (antibody, human IgG1, V domains shown)
VH: B1 VH with F35L
VL: B1 VL
notes: as for B1
- Kd: 315 pM
- koff: 0.000351 s⁻¹
- kon: 1.11e+06 M⁻¹ s⁻¹

B8: anti-IL-6 antibody, heavy chain S35W, G66D / light chain WT (antibody, human IgG1, V domains shown)
VH: B1 VH with F35W
VL: B1 VL
notes: as for B1
- Kd: 23500 pM
- koff: 0.00217 s⁻¹
- kon: 92300 M⁻¹ s⁻¹

B9: anti-IL-6 antibody, heavy chain T65R, G66D / light chain WT (antibody, human IgG1, V domains shown)
VH: B1 VH with F35S, T65R
VL: B1 VL
notes: as for B1
- Kd: 222 pM
- koff: 0.000444 s⁻¹
- kon: 2e+06 M⁻¹ s⁻¹

B10: anti-IL-6 antibody, heavy chain S35T, G66D / light chain WT (antibody, human IgG1, V domains shown)
VH: B1 VH with F35T
VL: B1 VL
notes: as for B1
- Kd: 297 pM
- koff: 0.000409 s⁻¹
- kon: 1.38e+06 M⁻¹ s⁻¹

B12: anti-IL-6 antibody, heavy chain T65H, G66D / light chain WT (antibody, human IgG1, V domains shown)
VH: B1 VH with F35S, T65H
VL: B1 VL
notes: as for B1
- Kd: 219 pM
- koff: 0.000356 s⁻¹
- kon: 1.63e+06 M⁻¹ s⁻¹

B13: anti-IL-6 antibody, heavy chain S35Y, G66D / light chain WT (antibody, human IgG1, V domains shown)
VH: B1 VH with F35Y
VL: B1 VL
notes: as for B1
- Kd: 503 pM
- koff: 0.000551 s⁻¹
- kon: 1.1e+06 M⁻¹ s⁻¹

B14: anti-IL-6 antibody, heavy chain S35Q, G66D / light chain WT (antibody, human IgG1, V domains shown)
VH: B1 VH with F35Q
VL: B1 VL
notes: as for B1
- Kd: 302 pM
- koff: 0.000395 s⁻¹
- kon: 1.31e+06 M⁻¹ s⁻¹

B15: anti-IL-6 antibody, heavy chain T65K, G66D / light chain WT (antibody, human IgG1, V domains shown)
VH: B1 VH with F35S, T65K
VL: B1 VL
notes: as for B1
- Kd: 262 pM
- koff: 0.000412 s⁻¹
- kon: 1.57e+06 M⁻¹ s⁻¹

B16: anti-IL-6 antibody, heavy chain T65P, G66D / light chain WT (antibody, human IgG1, V domains shown)
VH: B1 VH with F35S, T65P
VL: B1 VL
notes: as for B1
- Kd: 369 pM
- koff: 0.000568 s⁻¹
- kon: 1.54e+06 M⁻¹ s⁻¹

B17: anti-IL-6 antibody, heavy chain S35K, G66D / light chain WT (antibody, human IgG1, V domains shown)
VH: B1 VH with F35K
VL: B1 VL
notes: as for B1
- Kd: 557 pM
- koff: 0.000949 s⁻¹
- kon: 1.7e+06 M⁻¹ s⁻¹

B21: anti-IL-6 antibody, heavy chain T65W, G66D / light chain WT (antibody, human IgG1, V domains shown)
VH: B1 VH with F35S, T65W
VL: B1 VL
notes: as for B1
- Kd: 226 pM
- koff: 0.00037 s⁻¹
- kon: 1.64e+06 M⁻¹ s⁻¹

B22: anti-IL-6 antibody, heavy chain T63W, G66D / light chain WT (antibody, human IgG1, V domains shown)
VH: B1 VH with F35S, T63W
VL: B1 VL
notes: as for B1
- Kd: 251 pM
- koff: 0.000427 s⁻¹
- kon: 1.7e+06 M⁻¹ s⁻¹

B24: anti-IL-6 antibody, heavy chain S35I, G66D / light chain WT (antibody, human IgG1, V domains shown)
VH: B1 VH with F35I
VL: B1 VL
notes: as for B1
- Kd: 334 pM
- koff: 0.000376 s⁻¹
- kon: 1.12e+06 M⁻¹ s⁻¹

B25: anti-IL-6 antibody, heavy chain T63V, G66D / light chain WT (antibody, human IgG1, V domains shown)
VH: B1 VH with F35S, T63V
VL: B1 VL
notes: as for B1
- Kd: 217 pM
- koff: 0.000399 s⁻¹
- kon: 1.84e+06 M⁻¹ s⁻¹

B27: anti-IL-6 antibody, heavy chain T65A, G66D / light chain WT (antibody, human IgG1, V domains shown)
VH: B1 VH with F35S, T65A
VL: B1 VL
notes: as for B1
- Kd: 222 pM
- koff: 0.000364 s⁻¹
- kon: 1.64e+06 M⁻¹ s⁻¹

B30: anti-IL-6 antibody, heavy chain S35P, G66D / light chain WT (antibody, human IgG1, V domains shown)
VH: B1 VH with F35P
VL: B1 VL
notes: as for B1
- Kd: 11900 pM
- koff: 0.00123 s⁻¹
- kon: 103000 M⁻¹ s⁻¹

B31: anti-IL-6 antibody, heavy chain T65F, G66D / light chain WT (antibody, human IgG1, V domains shown)
VH: B1 VH with F35S, T65F
VL: B1 VL
notes: as for B1
- Kd: 223 pM
- koff: 0.000348 s⁻¹
- kon: 1.56e+06 M⁻¹ s⁻¹

B32: anti-IL-6 antibody, heavy chain S35G, G66D / light chain WT (antibody, human IgG1, V domains shown)
VH: B1 VH with F35G
VL: B1 VL
notes: as for B1
- Kd: 284 pM
- koff: 0.00036 s⁻¹
- kon: 1.27e+06 M⁻¹ s⁻¹

B37: anti-IL-6 antibody, heavy chain S35V, G66D / light chain WT (antibody, human IgG1, V domains shown)
VH: B1 VH with F35V
VL: B1 VL
notes: as for B1
- Kd: 414 pM
- koff: 0.000469 s⁻¹
- kon: 1.13e+06 M⁻¹ s⁻¹

More lines, in order of falling Kd, values ahead:

- Kd: 213 pM
- koff: 0.000397 s⁻¹
- kon: 1.86e+06 M⁻¹ s⁻¹
B6: anti-IL-6 antibody, heavy chain T63G, G66D / light chain WT (antibody, human IgG1, V domains shown)
VH: B1 VH with F35S, T63G
VL: B1 VL
notes: as for B1

- Kd: 213 pM
- koff: 0.00042 s⁻¹
- kon: 1.98e+06 M⁻¹ s⁻¹
B18: anti-IL-6 antibody, heavy chain T63H, G66D / light chain WT (antibody, human IgG1, V domains shown)
VH: B1 VH with F35S, T63H
VL: B1 VL
notes: as for B1

- Kd: 212 pM
- koff: 0.000375 s⁻¹
- kon: 1.77e+06 M⁻¹ s⁻¹
B5: anti-IL-6 antibody, heavy chain T65L, G66D / light chain WT (antibody, human IgG1, V domains shown)
VH: B1 VH with F35S, T65L
VL: B1 VL
notes: as for B1

- Kd: 211 pM
- koff: 0.000373 s⁻¹
- kon: 1.77e+06 M⁻¹ s⁻¹
B2: anti-IL-6 antibody, heavy chain T63I, G66D / light chain WT (antibody, human IgG1, V domains shown)
VH: B1 VH with F35S, T63I
VL: B1 VL
notes: as for B1

- Kd: 210 pM
- koff: 0.000383 s⁻¹
- kon: 1.82e+06 M⁻¹ s⁻¹
B20: anti-IL-6 antibody, heavy chain T65S, G66D / light chain WT (antibody, human IgG1, V domains shown)
VH: B1 VH with F35S, T65S
VL: B1 VL
notes: as for B1

- Kd: 210 pM
- koff: 0.000436 s⁻¹
- kon: 2.08e+06 M⁻¹ s⁻¹
B26: anti-IL-6 antibody, heavy chain T63P, G66D / light chain WT (antibody, human IgG1, V domains shown)
VH: B1 VH with F35S, T63P
VL: B1 VL
notes: as for B1

- Kd: 210 pM
- koff: 0.000383 s⁻¹
- kon: 1.82e+06 M⁻¹ s⁻¹
B29: anti-IL-6 antibody, heavy chain T63Y, G66D / light chain WT (antibody, human IgG1, V domains shown)
VH: B1 VH with F35S, T63Y
VL: B1 VL
notes: as for B1

- Kd: 210 pM
- koff: 0.000363 s⁻¹
- kon: 1.73e+06 M⁻¹ s⁻¹
B33: anti-IL-6 antibody, heavy chain T63L, G66D / light chain WT (antibody, human IgG1, V domains shown)
VH: B1 VH with F35S, T63L
VL: B1 VL
notes: as for B1

- Kd: 204 pM
- koff: 0.000392 s⁻¹
- kon: 1.92e+06 M⁻¹ s⁻¹
B35: anti-IL-6 antibody, heavy chain T63D, G66D / light chain WT (antibody, human IgG1, V domains shown)
VH: B1 VH with F35S, T63D
VL: B1 VL
notes: as for B1

- Kd: 203 pM
- koff: 0.000442 s⁻¹
- kon: 2.18e+06 M⁻¹ s⁻¹
B28: anti-IL-6 antibody, heavy chain T65D, G66D / light chain WT (antibody, human IgG1, V domains shown)
VH: B1 VH with F35S, T65D
VL: B1 VL
notes: as for B1

- Kd: 194 pM
- koff: 0.000427 s⁻¹
- kon: 2.2e+06 M⁻¹ s⁻¹
B4: anti-IL-6 antibody, heavy chain T65E, G66D / light chain WT (antibody, human IgG1, V domains shown)
VH: B1 VH with F35S, T65E
VL: B1 VL
notes: as for B1

- Kd: 184 pM
- koff: 0.000464 s⁻¹
- kon: 2.52e+06 M⁻¹ s⁻¹
B11: anti-IL-6 antibody, heavy chain T63S, G66D / light chain WT (antibody, human IgG1, V domains shown)
VH: B1 VH with F35S, T63S
VL: B1 VL
notes: as for B1

- Kd: 177 pM
- koff: 0.000496 s⁻¹
- kon: 2.8e+06 M⁻¹ s⁻¹
B34: anti-IL-6 antibody, heavy chain T63A, G66D / light chain WT (antibody, human IgG1, V domains shown)
VH: B1 VH with F35S, T63A
VL: B1 VL
notes: as for B1

- Kd: 175 pM
- koff: 0.000504 s⁻¹
- kon: 2.88e+06 M⁻¹ s⁻¹
B19: anti-IL-6 antibody, heavy chain T65V, G66D / light chain WT (antibody, human IgG1, V domains shown)
VH: B1 VH with F35S, T65V
VL: B1 VL
notes: as for B1

- Kd: 173 pM
- koff: 0.00046 s⁻¹
- kon: 2.66e+06 M⁻¹ s⁻¹
B36: anti-IL-6 antibody, heavy chain T63R, G66D / light chain WT (antibody, human IgG1, V domains shown)
VH: B1 VH with F35S, T63R
VL: B1 VL
notes: as for B1

- Kd: 123 pM
- koff: 0.000218 s⁻¹
- kon: 1.77e+06 M⁻¹ s⁻¹
B23: anti-IL-6 antibody, heavy chain T65G, G66D / light chain WT (antibody, human IgG1, V domains shown)
VH: B1 VH with F35S, T65G
VL: B1 VL
notes: as for B1
